Tests used:
[1] = biological target: RFP_PCNA1 (Arabidopsis thaliana) (UniProt Q9M7Q7); assay: FRET or BRET; FLIM-FRET in nuclei of transiently transformed N. benthamiana leaf cells; donor GFP fusion, acceptor RFP fusion; E = (1 - tauDA/tauD) x 100%; FRET efficiency of free GFP/RFP (1.19%) used as threshold
[2] = biological target: RFP_PCNA2 (Arabidopsis thaliana) (UniProt Q9ZW35); assay: as above
Sequence of UniProt Q9ZW35 (Q9ZW35 whole entry): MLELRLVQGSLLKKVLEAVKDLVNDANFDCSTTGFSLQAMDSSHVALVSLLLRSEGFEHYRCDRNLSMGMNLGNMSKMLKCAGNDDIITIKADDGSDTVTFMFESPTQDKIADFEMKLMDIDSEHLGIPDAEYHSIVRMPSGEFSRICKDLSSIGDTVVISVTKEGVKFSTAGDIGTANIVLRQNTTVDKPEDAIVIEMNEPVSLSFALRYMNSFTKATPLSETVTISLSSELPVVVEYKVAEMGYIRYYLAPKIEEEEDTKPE

Sequence of UniProt Q9M7Q7 (Q9M7Q7 whole entry, the tested form may be a part): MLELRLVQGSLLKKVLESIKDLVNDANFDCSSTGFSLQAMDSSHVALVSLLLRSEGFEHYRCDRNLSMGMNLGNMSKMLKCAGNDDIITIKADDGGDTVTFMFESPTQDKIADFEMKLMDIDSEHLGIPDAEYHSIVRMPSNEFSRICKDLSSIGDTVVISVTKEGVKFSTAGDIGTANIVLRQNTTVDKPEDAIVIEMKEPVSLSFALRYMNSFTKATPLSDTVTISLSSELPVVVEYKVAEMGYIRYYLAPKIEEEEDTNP

FRET efficiency [1] [%] | FRET efficiency [2] [%] | Substance
3.95 | 1.98 | CycD4;1_GFP (from UniProt Q8LGA1 1-308) (natural protein)
3.56 | 5.14 | CycD4;2_GFP (from UniProt Q0WQN9 1-298) (natural protein)
4.1 | 2.87 | CycD6;1_GFP (from UniProt Q9ZR04 1-302) (natural protein)
6.25 | 3.75 | CycD7;1_GFP (from UniProt Q9LZM0 1-341) (natural protein)
